Laboratory results: paper PMC2583301

Molecular target: yNap1 C200A/C249A/C272A labelled with Alexa dye at Cys-414 (yNap1m*) (yeast) (UniProt P25293)
Assay: other fluorescence titration

Q: With linker histone H1 (natural protein) as the substance, how does the Kd read?
A: 3 nM

Q: What about the stoichiometry N (H1 per yNap1 dimer) of the same substance?
A: 2
